These are literature values, as cited in PMC2778592.

The term Kd denotes a measure of binding affinity in units of concentration.

This data set has as its target EGFR (Homo sapiens) (UniProt P00533).

Turning to “tenascin-C Ten14 EGF-L repeat (from UniProt P24821)”, the Kd is 74 µM.
